Assay [1] addresses SARS-CoV-2 B.1.351 ('SA', beta) variant spike protein on pseudotyped virus or live virus (SARS-CoV-2 (B.1.351)), P0DTC2. Description: cell-based or functional assay.
Assay [2] has as its target SARS-CoV-2 B.1.1.7 ('UK', alpha) variant spike protein on pseudotyped virus or live virus (SARS-CoV-2 (B.1.1.7)). Description: cell-based or functional assay.

B1: R2D9 CDR3-knob (peptide)
peptide: ITHKTCPNGYNWFDRCCSWDGTCGDGCCSNRAWPSGNGRADSSIGETYGYEF
modifications: not checked
The molecule B1 came in with a pseudovirus neutralization, ng/mL (quantity not given) in assay [1] of 22.6 ng/mL.

B2: purified R2G3 CDR3-knob (after enterokinase cleavage from trxA) (peptide)
peptide: EGDKTCPDGYEHTCGCIGGCGCKRSACIGALCCQASLGGWLSDGETYTYEF
modifications: not checked
In the case of B2, the live SARS CoV-2 neutralization, ng/mL (quantity not given) worked out at 2.48 ng/mL in assay [2] and 374 ng/mL in assay [1]. In assay [1], this molecule gave a pseudovirus neutralization, ng/mL (quantity not given) of 66.2 ng/mL.

The record behind these values is patent US20240262893A1.
